Experimental data reported in patent US20140274782A1, “AFFINITY REAGENTS AND METHODS FOR DETECTION, PURIFICATION, AND PROTEOMIC ANALYSIS OF METHYLATED PROTEINS” (The Board of Trustees of the Leland Stanford Junior …, priority 2013, published 2014).
One block for each molecule: values may come before it.

Assays:
3×MBT domain of L3MBTL1 = experiment: Triple SILAC pull-down, 3xMBT/3xMBTD355N ratio (cytoplasmic, nuclear and chromatin fractions of 293T cells); type: binding, human; conditions: SILAC ratio, pull-down 3xMBT vs 3xMBTD355N; for 3xMBT/D355N UNC Heavy: experiment with UNC0638 in heavy SILAC media; for 3xMBT/D355N UNC Light: experiment with UNC0638 in light SILAC media;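 as to all read-outs here: proteins quantified with MaxQuant, requiring at least two unique peptides and quantification in both label directions, normalized to the mean of proteins from a digested loading control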
G9a and GLP = molecular target: T1, G9a and GLP (Homo sapiens, UniProt Q96KQ7+Q9H9B1); experiment: Triple SILAC pull-down after UNC0638 treatment of 293T cells, DMSO/UNC0638 ratio of protein captured by 3×MBT; type: cell-based; design: cells were treated for 24 hours with UNC0638 at 2.5 μM or DMSO vehicle control; endogenous in cells; host or cells: HEK 293T; conditions: for Relative to UNC0638 UNC Heavy / Relative to UNC0638 UNC Light: SILAC ratio DMSO/UNC0638 of protein pulled down with 3xMBT; for Relative to UNC0638 UNC Heavy: UNC0638 in heavy SILAC media; for Relative to UNC0638 UNC Light: UNC0638 in light SILAC media; for Relative to UNC0638 Average: average of UNC Light and UNC Heavy experiments;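 as to all read-outs here: mass spectrometry (Q-Exactive) SILAC quantitation, DMSO/UNC0638 ratio computed after subtracting 3×MBTD355N mutant pull-down background, only proteins with at least twofold 3×MBT over mutant signal considered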
T1 sequence (Q96KQ7 2-1210 limits assumed): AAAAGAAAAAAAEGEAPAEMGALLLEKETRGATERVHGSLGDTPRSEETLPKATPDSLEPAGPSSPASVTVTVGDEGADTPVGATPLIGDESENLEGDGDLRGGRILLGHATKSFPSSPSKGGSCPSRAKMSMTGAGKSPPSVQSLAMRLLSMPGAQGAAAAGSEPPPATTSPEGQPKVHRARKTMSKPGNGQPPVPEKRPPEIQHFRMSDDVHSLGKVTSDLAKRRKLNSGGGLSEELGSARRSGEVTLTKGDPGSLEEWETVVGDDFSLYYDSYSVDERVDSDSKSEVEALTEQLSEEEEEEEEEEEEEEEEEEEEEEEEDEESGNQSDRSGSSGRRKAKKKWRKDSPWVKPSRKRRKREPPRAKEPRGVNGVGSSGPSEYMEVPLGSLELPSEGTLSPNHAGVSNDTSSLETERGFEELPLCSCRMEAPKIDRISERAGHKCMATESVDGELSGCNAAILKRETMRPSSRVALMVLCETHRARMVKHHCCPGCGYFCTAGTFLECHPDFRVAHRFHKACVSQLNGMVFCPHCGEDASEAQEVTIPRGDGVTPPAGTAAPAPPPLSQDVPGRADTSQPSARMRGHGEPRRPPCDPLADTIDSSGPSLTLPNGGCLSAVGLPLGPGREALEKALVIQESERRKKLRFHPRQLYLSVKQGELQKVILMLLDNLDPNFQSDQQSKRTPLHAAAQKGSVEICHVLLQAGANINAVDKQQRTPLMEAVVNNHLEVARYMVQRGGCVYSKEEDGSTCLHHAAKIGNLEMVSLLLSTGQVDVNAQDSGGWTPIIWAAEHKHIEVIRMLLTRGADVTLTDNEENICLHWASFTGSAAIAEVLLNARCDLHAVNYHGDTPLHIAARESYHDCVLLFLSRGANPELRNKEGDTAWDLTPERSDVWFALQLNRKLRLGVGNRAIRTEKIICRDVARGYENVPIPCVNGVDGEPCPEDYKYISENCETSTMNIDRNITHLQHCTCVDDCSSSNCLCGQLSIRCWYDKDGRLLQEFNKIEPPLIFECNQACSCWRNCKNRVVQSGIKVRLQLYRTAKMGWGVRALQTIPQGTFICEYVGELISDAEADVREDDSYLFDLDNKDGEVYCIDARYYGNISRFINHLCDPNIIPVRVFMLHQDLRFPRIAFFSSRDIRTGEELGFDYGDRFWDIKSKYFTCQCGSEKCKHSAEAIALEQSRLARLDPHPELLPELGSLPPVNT
T1 sequence (Q9H9B1 2-1298 limits assumed): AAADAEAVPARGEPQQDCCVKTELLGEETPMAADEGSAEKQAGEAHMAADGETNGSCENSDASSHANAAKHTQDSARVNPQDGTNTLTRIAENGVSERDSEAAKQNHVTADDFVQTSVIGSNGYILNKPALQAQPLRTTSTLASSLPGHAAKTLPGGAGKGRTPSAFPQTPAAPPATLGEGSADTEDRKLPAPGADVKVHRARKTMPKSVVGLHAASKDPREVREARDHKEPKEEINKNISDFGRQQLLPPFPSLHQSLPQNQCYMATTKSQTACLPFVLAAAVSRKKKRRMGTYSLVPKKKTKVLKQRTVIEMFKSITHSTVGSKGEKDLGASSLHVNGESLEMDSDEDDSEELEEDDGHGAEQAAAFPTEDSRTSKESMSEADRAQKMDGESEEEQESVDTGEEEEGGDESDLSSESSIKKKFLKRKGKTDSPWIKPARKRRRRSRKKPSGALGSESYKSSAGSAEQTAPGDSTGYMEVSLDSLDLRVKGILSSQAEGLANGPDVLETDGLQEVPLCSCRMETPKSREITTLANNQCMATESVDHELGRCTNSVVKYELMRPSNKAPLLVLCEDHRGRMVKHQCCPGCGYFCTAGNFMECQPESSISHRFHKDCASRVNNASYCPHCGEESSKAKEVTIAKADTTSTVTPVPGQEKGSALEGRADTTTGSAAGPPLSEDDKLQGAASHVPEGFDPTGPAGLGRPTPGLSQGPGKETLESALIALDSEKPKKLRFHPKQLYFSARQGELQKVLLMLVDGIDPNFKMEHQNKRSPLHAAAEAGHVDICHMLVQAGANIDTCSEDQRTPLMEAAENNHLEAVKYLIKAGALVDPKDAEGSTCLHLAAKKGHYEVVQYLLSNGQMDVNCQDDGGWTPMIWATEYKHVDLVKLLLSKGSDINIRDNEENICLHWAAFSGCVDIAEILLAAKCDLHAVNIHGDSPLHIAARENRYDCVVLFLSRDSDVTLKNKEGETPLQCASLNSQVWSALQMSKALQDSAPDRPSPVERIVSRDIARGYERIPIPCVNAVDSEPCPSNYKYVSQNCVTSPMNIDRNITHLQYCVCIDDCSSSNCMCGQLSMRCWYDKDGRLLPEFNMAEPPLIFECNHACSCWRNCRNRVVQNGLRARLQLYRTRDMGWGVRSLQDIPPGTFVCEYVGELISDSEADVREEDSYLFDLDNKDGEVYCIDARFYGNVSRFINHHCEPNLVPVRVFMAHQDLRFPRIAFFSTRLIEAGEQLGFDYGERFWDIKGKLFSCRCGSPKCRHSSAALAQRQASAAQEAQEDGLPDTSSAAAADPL

- Relative to UNC0638 UNC Heavy (G9a and GLP): 0.37 log base 2
- Relative to UNC0638 UNC Light (G9a and GLP): 0.03 log base 2
- Relative to UNC0638 Average (G9a and GLP): 0.20 log base 2
B1: CRKL (protein, UniProt P46109 1-303, looked up)
Crk-like protein: MSSARFDSSDRSAWYMGPVSRQEAQTRLQGQRHGMFLVRDSSTCPGDYVLSVSENSRVSHYIINSLPNRRFKIGDQEFDHLPALLEFYKIHYLDTTTLIEPAPRYPSPPMGSVSAPNLPTAEDNLEYVRTLYDFPGNDAEDLPFKKGEILVIIEKPEEQWWSARNKDGRVGMIPVPYVEKLVRSSPHGKHGNRNSNSYGIPEPAHAYAQPQTTTPLPAVSGSPGAAITPLPSTQNGPVFAKAIQKRVPCAYDKTALALEVGDIVKVTRMNINGQWEGEVNGRKGLFPFTHVKIFDPQNPDENE
- 3xMBT/D355N UNC Heavy (3×MBT domain of L3MBTL1): 1.16 log base 2
- 3xMBT/D355N UNC Light (3×MBT domain of L3MBTL1): 1.59 log base 2

- Relative to UNC0638 UNC Heavy (G9a and GLP): 0.31 log base 2
- Relative to UNC0638 UNC Light (G9a and GLP): 0.10 log base 2
- Relative to UNC0638 Average (G9a and GLP): 0.20 log base 2
B2: DDX5 (protein, UniProt P17844 1-614, looked up)
Probable ATP-dependent RNA …: MSGYSSDRDRGRDRGFGAPRFGGSRAGPLSGKKFGNPGEKLVKKKWNLDELPKFEKNFYQEHPDLARRTAQEVETYRRSKEITVRGHNCPKPVLNFYEANFPANVMDVIARQNFTEPTAIQAQGWPVALSGLDMVGVAQTGSGKTLSYLLPAIVHINHQPFLERGDGPICLVLAPTRELAQQVQQVAAEYCRACRLKSTCIYGGAPKGPQIRDLERGVEICIATPGRLIDFLECGKTNLRRTTYLVLDEADRMLDMGFEPQIRKIVDQIRPDRQTLMWSATWPKEVRQLAEDFLKDYIHINIGALELSANHNILQIVDVCHDVEKDEKLIRLMEEIMSEKENKTIVFVETKRRCDELTRKMRRDGWPAMGIHGDKSQQERDWVLNEFKHGKAPILIATDVASRGLDVEDVKFVINYDYPNSSEDYIHRIGRTARSTKTGTAYTFFTPNNIKQVSDLISVLREANQAINPKLLQLVEDRGSGRSRGRGGMKDDRRDRYSAGKRGGFNTFRDRENYDRGYSSLLKRDFGAKTQNGVYSAANYTNGSFGSNFVSAGIQTSFRTGNPTGTYQNGYDSTQQYGSNVPNMHNGMNQQAYAYPATAAAPMIGYPMPTGYSQ
- 3xMBT/D355N UNC Heavy (3×MBT domain of L3MBTL1): 3.00 log base 2
- 3xMBT/D355N UNC Light (3×MBT domain of L3MBTL1): 2.92 log base 2

- Relative to UNC0638 UNC Heavy (G9a and GLP): 0.16 log base 2
- Relative to UNC0638 UNC Light (G9a and GLP): 0.24 log base 2
- Relative to UNC0638 Average (G9a and GLP): 0.20 log base 2
B3: HNRPDL (protein, UniProt O14979 1-420, looked up)
Heterogeneous nuclear …: MEVPPRLSHVPPPLFPSAPATLASRSLSHWRPRPPRQLAPLLPSLAPSSARQGARRAQRHVTAQQPSRLAGGAAIKGGRRRRPDLFRRHFKSSSIQRSAAAAAATRTARQHPPADSSVTMEDMNEYSNIEEFAEGSKINASKNQQDDGKMFIGGLSWDTSKKDLTEYLSRFGEVVDCTIKTDPVTGRSRGFGFVLFKDAASVDKVLELKEHKLDGKLIDPKRAKALKGKEPPKKVFVGGLSPDTSEEQIKEYFGAFGEIENIELPMDTKTNERRGFCFITYTDEEPVKKLLESRYHQIGSGKCEIKVAQPKEVYRQQQQQQKGGRGAAAGGRGGTRGRGRGQGQNWNQGFNNYYDQGYGNYNSAYGGDQNYSGYGGYDYTGYNYGNYGYGQGYADYSGQQSTYGKASRGGGNHQNNYQPY
- 3xMBT/D355N UNC Heavy (3×MBT domain of L3MBTL1): 2.81 log base 2
- 3xMBT/D355N UNC Light (3×MBT domain of L3MBTL1): 3.02 log base 2

- Relative to UNC0638 UNC Heavy (G9a and GLP): 0.13 log base 2
- Relative to UNC0638 UNC Light (G9a and GLP): 0.27 log base 2
- Relative to UNC0638 Average (G9a and GLP): 0.20 log base 2
B4: DHX15 (protein, UniProt O43143 1-795, looked up)
ATP-dependent RNA helicase …: MSKRHRLDLGEDYPSGKKRAGTDGKDRDRDRDREDRSKDRDRERDRGDREREREKEKEKELRASTNAMLISAGLPPLKASHSAHSTHSAHSTHSTHSAHSTHAGHAGHTSLPQCINPFTNLPHTPRYYDILKKRLQLPVWEYKDRFTDILVRHQSFVLVGETGSGKTTQIPQWCVEYMRSLPGPKRGVACTQPRRVAAMSVAQRVADEMDVMLGQEVGYSIRFEDCSSAKTILKYMTDGMLLREAMNDPLLERYGVIILDEAHERTLATDILMGVLKEVVRQRSDLKVIVMSATLDAGKFQIYFDNCPLLTIPGRTHPVEIFYTPEPERDYLEAAIRTVIQIHMCEEEEGDLLLFLTGQEEIDEACKRIKREVDDLGPEVGDIKIIPLYSTLPPQQQQRIFEPPPPKKQNGAIGRKVVVSTNIAETSLTIDGVVFVIDPGFAKQKVYNPRIRVESLLVTAISKASAQQRAGRAGRTRPGKCFRLYTEKAYKTEMQDNTYPEILRSNLGSVVLQLKKLGIDDLVHFDFMDPPAPETLMRALELLNYLAALNDDGDLTELGSMMAEFPLDPQLAKMVIASCDYNCSNEVLSITAMLSVPQCFVRPTEAKKAADEAKMRFAHIDGDHLTLLNVYHAFKQNHESVQWCYDNFINYRSLMSADNVRQQLSRIMDRFNLPRRSTDFTSRDYYINIRKALVTGYFMQVAHLERTGHYLTVKDNQVVQLHPSTVLDHKPEWVLYNEFVLTTKNYIRTCTDIKPEWLVKIAPQYYDMSNFPQCEAKRQLDRIIAKLQSKEYSQY
- 3xMBT/D355N UNC Heavy (3×MBT domain of L3MBTL1): 2.98 log base 2
- 3xMBT/D355N UNC Light (3×MBT domain of L3MBTL1): 2.54 log base 2

- Relative to UNC0638 UNC Heavy (G9a and GLP): 0.25 log base 2
- Relative to UNC0638 UNC Light (G9a and GLP): 0.14 log base 2
- Relative to UNC0638 Average (G9a and GLP): 0.20 log base 2
B5: DDX3X (protein, UniProt O00571 2-662, looked up)
ATP-dependent RNA helicase …: SHVAVENALGLDQQFAGLDLNSSDNQSGGSTASKGRYIPPHLRNREATKGFYDKDSSGWSSSKDKDAYSSFGSRSDSRGKSSFFSDRGSGSRGRFDDRGRSDYDGIGSRGDRSGFGKFERGGNSRWCDKSDEDDWSKPLPPSERLEQELFSGGNTGINFEKYDDIPVEATGNNCPPHIESFSDVEMGEIIMGNIELTRYTRPTPVQKHAIPIIKEKRDLMACAQTGSGKTAAFLLPILSQIYSDGPGEALRAMKENGRYGRRKQYPISLVLAPTRELAVQIYEEARKFSYRSRVRPCVVYGGADIGQQIRDLERGCHLLVATPGRLVDMMERGKIGLDFCKYLVLDEADRMLDMGFEPQIRRIVEQDTMPPKGVRHTMMFSATFPKEIQMLARDFLDEYIFLAVGRVGSTSENITQKVVWVEESDKRSFLLDLLNATGKDSLTLVFVETKKGADSLEDFLYHEGYACTSIHGDRSQRDREEALHQFRSGKSPILVATAVAARGLDISNVKHVINFDLPSDIEEYVHRIGRTGRVGNLGLATSFFNERNINITKDLLDLLVEAKQEVPSWLENMAYEHHYKGSSRGRSKSSRFSGGFGARDYRQSSGASSSSFSSSRASSSRSGGGGHGSSRGFGGGGYGGFYNSDGYGGNYNSQGVDWWGN
- 3xMBT/D355N UNC Heavy (3×MBT domain of L3MBTL1): 2.64 log base 2
- 3xMBT/D355N UNC Light (3×MBT domain of L3MBTL1): 2.58 log base 2
